Laboratory results reported in IntAct's records for PubMed 17267444.

Columns and labels:
scar2_arath SCAR2 = scar2_arath SCAR2 (UniProt Q5XPJ9)
spk1_arath SPK1 = spk1_arath SPK1 (UniProt Q8SAB7)
scarl_arath WAVE5 = scarl_arath WAVE5 (UniProt Q5XPK0)
scar1_arath SCAR1 = scar1_arath SCAR1 (UniProt Q6AWX6)
scar1_arath SCAR1, sequence (Q6AWX6 whole entry): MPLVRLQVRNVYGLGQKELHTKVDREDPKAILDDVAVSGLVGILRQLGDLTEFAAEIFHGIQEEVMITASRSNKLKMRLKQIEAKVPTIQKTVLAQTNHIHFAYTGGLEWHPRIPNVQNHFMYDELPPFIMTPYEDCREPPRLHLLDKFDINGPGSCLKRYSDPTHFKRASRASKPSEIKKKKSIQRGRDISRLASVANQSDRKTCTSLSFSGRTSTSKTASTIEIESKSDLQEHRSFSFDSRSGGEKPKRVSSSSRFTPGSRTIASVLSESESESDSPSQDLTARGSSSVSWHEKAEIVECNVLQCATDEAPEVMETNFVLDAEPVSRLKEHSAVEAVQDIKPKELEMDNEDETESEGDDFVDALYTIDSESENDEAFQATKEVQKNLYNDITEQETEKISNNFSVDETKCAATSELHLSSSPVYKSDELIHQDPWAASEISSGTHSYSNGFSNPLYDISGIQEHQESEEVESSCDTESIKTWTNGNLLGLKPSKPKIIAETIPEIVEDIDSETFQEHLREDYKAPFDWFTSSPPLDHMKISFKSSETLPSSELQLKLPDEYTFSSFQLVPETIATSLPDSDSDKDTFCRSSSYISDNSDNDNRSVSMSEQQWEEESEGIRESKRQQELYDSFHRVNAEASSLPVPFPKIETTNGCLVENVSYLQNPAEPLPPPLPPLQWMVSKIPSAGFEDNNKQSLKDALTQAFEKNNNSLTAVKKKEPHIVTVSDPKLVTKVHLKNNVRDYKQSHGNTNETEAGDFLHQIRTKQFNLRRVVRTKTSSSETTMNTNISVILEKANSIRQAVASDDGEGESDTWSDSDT

Rac-like GTP-binding protein ARAC9 (Arabidopsis thaliana (Mouse-ear cress)), Q9XGU0 G27V, sequence (Q9XGU0 whole entry G27V): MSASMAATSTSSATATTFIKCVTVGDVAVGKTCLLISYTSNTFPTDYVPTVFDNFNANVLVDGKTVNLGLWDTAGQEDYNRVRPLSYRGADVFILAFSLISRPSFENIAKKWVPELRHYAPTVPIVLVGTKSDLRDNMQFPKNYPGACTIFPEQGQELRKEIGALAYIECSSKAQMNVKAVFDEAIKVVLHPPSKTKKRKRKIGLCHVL
Rac-like GTP-binding protein ARAC2 (Arabidopsis thaliana (Mouse-ear cress)), Q38903 T20D, sequence (Q38903 whole entry T20D): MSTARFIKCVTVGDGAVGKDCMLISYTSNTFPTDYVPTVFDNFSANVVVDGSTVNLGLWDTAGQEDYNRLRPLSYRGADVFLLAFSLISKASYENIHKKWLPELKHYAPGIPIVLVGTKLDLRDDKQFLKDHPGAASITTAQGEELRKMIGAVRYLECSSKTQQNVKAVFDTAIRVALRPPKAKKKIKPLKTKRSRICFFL
spk1_arath SPK1, sequence (Q8SAB7 whole entry): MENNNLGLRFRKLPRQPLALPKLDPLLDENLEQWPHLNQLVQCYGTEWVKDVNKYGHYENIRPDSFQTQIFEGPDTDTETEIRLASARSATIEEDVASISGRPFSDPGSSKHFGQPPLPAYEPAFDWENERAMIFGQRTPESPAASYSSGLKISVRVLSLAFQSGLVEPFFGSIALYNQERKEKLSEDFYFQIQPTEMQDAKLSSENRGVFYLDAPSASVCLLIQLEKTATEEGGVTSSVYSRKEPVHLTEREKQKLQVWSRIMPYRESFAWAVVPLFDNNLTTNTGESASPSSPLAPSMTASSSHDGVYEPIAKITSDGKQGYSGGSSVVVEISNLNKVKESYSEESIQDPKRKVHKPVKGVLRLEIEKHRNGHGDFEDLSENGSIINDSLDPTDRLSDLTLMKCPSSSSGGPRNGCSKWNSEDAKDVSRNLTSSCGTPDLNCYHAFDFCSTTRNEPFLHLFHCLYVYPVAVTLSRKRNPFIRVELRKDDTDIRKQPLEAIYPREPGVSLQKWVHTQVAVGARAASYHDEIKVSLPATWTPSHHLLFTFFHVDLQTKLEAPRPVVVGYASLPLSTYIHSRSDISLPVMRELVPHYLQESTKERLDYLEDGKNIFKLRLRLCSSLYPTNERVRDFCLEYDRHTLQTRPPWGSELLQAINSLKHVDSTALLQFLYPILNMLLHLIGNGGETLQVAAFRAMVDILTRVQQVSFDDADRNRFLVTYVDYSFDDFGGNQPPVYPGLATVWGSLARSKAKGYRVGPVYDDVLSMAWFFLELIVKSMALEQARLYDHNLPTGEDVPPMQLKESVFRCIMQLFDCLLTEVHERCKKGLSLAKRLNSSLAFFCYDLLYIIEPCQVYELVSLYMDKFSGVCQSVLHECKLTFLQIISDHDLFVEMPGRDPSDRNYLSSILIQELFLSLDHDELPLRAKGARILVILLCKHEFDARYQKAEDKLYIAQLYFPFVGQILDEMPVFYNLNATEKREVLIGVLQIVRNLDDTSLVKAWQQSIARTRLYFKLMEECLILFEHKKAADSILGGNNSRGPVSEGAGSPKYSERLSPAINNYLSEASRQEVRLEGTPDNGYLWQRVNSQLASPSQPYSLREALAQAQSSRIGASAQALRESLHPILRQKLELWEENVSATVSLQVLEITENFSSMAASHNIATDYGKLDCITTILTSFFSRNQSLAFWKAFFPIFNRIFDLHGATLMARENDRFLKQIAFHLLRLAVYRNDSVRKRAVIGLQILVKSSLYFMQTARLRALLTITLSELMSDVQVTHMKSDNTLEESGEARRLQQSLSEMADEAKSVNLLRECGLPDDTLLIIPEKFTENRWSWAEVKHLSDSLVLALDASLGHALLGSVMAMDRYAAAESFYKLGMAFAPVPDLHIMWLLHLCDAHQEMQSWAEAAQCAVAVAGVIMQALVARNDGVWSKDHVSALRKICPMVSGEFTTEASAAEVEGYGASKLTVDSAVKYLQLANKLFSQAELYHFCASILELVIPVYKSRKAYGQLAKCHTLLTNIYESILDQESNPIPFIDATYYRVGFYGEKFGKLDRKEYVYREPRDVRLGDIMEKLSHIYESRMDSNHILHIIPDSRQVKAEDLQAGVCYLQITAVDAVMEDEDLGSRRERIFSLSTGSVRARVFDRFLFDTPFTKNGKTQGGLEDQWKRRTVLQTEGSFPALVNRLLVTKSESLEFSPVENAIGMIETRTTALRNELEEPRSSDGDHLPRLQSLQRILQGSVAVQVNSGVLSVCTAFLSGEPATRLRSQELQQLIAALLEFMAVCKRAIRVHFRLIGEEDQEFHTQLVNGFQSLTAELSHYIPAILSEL
scarl_arath WAVE5, sequence (Q5XPK0 whole entry): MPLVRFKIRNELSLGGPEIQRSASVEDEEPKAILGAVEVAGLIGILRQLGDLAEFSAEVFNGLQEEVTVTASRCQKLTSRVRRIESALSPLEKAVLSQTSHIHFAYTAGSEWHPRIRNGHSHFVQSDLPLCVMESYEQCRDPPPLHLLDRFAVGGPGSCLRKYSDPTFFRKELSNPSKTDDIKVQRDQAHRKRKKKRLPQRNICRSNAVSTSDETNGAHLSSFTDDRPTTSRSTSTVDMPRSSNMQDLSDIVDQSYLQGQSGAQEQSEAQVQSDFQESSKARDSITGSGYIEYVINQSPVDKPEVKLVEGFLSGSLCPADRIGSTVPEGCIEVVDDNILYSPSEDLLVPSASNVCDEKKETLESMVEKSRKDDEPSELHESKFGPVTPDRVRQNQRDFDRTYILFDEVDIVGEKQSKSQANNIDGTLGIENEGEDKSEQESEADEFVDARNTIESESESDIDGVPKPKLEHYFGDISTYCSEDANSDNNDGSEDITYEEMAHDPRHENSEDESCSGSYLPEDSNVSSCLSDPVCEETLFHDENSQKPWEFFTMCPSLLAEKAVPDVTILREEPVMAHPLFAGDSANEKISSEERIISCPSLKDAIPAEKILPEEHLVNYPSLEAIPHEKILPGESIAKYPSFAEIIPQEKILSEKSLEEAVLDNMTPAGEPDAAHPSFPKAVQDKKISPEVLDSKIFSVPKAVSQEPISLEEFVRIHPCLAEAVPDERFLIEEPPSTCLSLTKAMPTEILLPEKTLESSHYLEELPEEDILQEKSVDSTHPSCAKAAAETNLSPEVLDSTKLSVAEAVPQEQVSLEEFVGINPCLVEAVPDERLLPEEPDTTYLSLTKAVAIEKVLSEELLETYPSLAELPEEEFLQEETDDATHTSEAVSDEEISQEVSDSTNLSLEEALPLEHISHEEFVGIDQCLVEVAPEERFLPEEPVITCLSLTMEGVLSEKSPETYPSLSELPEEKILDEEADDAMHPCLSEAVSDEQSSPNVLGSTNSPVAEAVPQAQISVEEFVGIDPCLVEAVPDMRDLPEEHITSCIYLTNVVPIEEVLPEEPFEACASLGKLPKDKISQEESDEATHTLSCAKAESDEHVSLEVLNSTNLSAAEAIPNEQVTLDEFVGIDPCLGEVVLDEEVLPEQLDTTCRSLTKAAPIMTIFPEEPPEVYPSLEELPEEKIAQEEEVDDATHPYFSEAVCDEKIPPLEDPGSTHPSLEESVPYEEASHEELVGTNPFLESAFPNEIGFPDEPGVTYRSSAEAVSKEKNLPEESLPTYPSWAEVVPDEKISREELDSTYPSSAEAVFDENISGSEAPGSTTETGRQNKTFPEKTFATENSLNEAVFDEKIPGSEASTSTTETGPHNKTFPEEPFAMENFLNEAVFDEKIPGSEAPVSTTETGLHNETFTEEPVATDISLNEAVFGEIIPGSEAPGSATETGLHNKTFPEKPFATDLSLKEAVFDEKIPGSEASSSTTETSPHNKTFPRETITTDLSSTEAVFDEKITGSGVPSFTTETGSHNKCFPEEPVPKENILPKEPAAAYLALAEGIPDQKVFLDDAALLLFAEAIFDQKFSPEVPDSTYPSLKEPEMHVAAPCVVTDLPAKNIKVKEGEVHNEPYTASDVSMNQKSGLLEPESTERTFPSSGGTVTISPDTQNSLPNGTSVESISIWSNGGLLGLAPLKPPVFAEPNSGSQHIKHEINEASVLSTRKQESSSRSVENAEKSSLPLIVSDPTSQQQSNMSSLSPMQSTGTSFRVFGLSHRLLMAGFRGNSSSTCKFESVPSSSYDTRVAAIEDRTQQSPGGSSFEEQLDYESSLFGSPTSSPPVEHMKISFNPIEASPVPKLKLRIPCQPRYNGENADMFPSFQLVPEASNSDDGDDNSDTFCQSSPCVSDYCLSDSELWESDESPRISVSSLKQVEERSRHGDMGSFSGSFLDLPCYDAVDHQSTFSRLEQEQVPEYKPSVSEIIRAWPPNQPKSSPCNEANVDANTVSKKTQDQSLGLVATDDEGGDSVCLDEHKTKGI

Substance | effect of a mutation on the interaction (scar2_arath SCAR2) | effect of a mutation on the interaction (spk1_arath SPK1) | effect of a mutation on the interaction (scarl_arath WAVE5) | effect of a mutation on the interaction (scar1_arath SCAR1)
Rac-like GTP-binding protein ARAC2 (Arabidopsis thaliana (Mouse-ear cress)), Q38903 T20D | disrupting interaction |  |  | 
Rac-like GTP-binding protein ARAC9 (Arabidopsis thaliana (Mouse-ear cress)), Q9XGU0 G27V |  | disrupting interaction | disrupting interaction | disrupting interaction
